# Test results published in article PMC8248824 (Acta Crystallographica. Section F, Structural Biology …, 2021).
# T1: HER3 extracellular domain 4, biotinylated (N-terminal AviTag and His6 tag) (human, biotin (in vitro biotinylation, AviTag))
# T1 construct: HER3 (ErbB3) extracellular domain 4, human, residues 500-643 of UniProt entry P21860; also called HER3d4; HER3 domain 4; source: Sf9 insect cells (baculovirus), secreted, purified (IMAC, Superdex 75), biotinylated in vitro; not shown: AviTag, N-terminal, kept
# T1 chain: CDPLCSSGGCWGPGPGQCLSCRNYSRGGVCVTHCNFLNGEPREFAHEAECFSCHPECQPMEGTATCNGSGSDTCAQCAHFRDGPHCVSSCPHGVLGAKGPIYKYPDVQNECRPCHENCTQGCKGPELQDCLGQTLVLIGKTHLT
# T2: HER3 extracellular domain 4 (HER3d4) without AviTag, deglycosylated (Homo sapiens)
# T2 construct: PNGase F treatment may have turned glycosylated Asn into Asp (surmise); also called HER3 domain 4; ErbB3 domain 4; source: Sf9 (baculovirus), secreted, purified (IMAC), deglycosylated with PNGase F, ConA Sepharose
# T2 chain: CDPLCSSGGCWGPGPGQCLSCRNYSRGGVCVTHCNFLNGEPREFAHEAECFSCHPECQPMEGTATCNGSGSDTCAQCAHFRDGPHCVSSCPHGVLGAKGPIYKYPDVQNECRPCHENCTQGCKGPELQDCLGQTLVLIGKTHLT
# T3: biotinylated HER3 domain 4 with N-terminal AviTag and His6 tag (Homo sapiens, biotin (in vitro biotinylation of the AviTag))
# T3 construct: also called biotinylated HER3d4; HER3d4; source: Sf9 (baculovirus), secreted, purified (IMAC, in vitro biotinylation, Superdex 75 SEC); not shown: AviTag, N-terminal, kept
# T3 chain: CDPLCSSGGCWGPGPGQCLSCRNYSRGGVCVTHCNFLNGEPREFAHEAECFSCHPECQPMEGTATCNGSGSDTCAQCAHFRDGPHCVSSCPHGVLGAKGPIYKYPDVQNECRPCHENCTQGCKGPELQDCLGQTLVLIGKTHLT
# Target: T1, HER3 extracellular domain 4, …
# Assay: SPR; ProteOn XPR36, NeutrAvidin NLC chip; biotinylated HER3d4 immobilised; monomeric DARPins injected at 2.5, 7.5, 22, 67 and 200 nM (duplicates), 60 µl/min, 5 min association, 5 min dissociation; PBS with 0.005% Tween-20; kinetic titration model
# Settings: both partners purified
Binder,koff [s⁻¹],kon [M⁻¹ s⁻¹],Kd [nM]
"DARPin D6 (designed binder, N3C DARPin selected by ribosome display; source: E. coli XL1 Blue, purified (HisPur Cobalt Spin Plates)) GSDLGKKLLEAARAGQDDEVRILMANGADVNAQDVSGQTPLHLAAIWGHLEIVEVLLKTGADVNAWDHWGNTPLHLAAWQGHLEIVEVLLKAGTDVNAKDSEGFTPLHLAAWWGHLEIVEVLLKHGADVNAQDKFGKTPFDLAIDNGNEDIAEVLQKAAKLN",0.000623,138000,
"DARPin D4 (designed binder, N2C DARPin selected by ribosome display; source: E. coli XL1 Blue, purified (HisPur Cobalt Spin Plates)) GSDLGKKLLEAARAGQDDEVRILMANGADVNAFDHNGSTPLHLAAAIGHLEIVEVLLKYGADVNAEDNWGNTPLHQAAWVGHREIVEVLLKYGADVNAQDKFGKTAFDISIDNGNEDLAEILQKLN",0.00669,1.51e+06,4.4
"DARPin D3 (designed binder, N2C DARPin selected by ribosome display; source: E. coli XL1 Blue, purified (HisPur Cobalt Spin Plates)) GSDLGKKLLEAARAGQDDEVRILMANGADVNAFDHSGSTPLHLAAAIGHLEIVEVLLKYGADVNAEDNWGNTPLHQAAWVGHREIVEVLLKYGADVNAQDKFGKTAFDISIDNGNEDLAEILQKLN",0.0109,1.35e+06,
"DARPin D2 (designed binder, N2C DARPin selected by ribosome display; source: E. coli XL1 Blue, purified (HisPur Cobalt Spin Plates)) GSDLGKKLLEAARAGQDDEVRVLMANGADVNAFDHNGSTPLHLAAAIGHLEIVEVLLKYGADVNAEDNWGNTPLHQAAWVGHREIVEVLLKYGADVNAQDKFGKTAFDISIDNGNEDLAEILQKLN",0.00783,1.37e+06,5.7
"DARPin D1 (designed binder, N2C DARPin selected by ribosome display; source: E. coli XL1 Blue, purified (HisPur Cobalt Spin Plates)) GSDLGKKLLEAARAGQDDEVRILMTNGADVNAFDHNGSTPLHLAAAIGHLEIVEVLLKYGADVNAEDNWGNTPLHQAAWVGHREIVEVLLKYGVDVNAQDKFGKTAFDISIDNGNEDLAEILQKLN",0.00932,1.23e+06,7.6

# The remaining lines, values ahead:
koff [s⁻¹],kon [M⁻¹ s⁻¹],Kd [nM],Binder
0.000791,158000,5,"DARPin D8 (designed binder, N3C DARPin selected by ribosome display; source: E. coli XL1 Blue, purified (HisPur Cobalt Spin Plates)) GSDLGKKLLEAARAGQDDEVRILMANGADVNAQDVSGQTPLHLAAIWGHLEIVEVLLKTGADVNAWDHWGNTPLHLAAWQGHLEIVEVLLKAGADVNAKDSEGFTPLHLAAWWGHLEIVEVLLKHGADVNAQDKFGKTPFDLAIDNGNEDIAEVLQKAAKLN"
0.00856,1.25e+06,6.9,"DARPin D5 (His6- and FLAG-tagged form used for characterisation) (designed binder, N2C DARPin selected by ribosome display; source: E. coli XL1 Blue, purified (HisPur Cobalt Spin Plates)) GSDLGKKLLEAARAGQDDEVRILMANGADVNAFDHNGSTPLHLAAAIGHLEIVEVLLKYGADVNAEDNWGNTPLHQAAWVGHLEIVEVLLKNGADVNAQDKFGKTAFDISIDNGNEDLAEILQKLN"
0.00147,196000,7.5,"DARPin D7 (designed binder, N3C DARPin selected by ribosome display; source: E. coli XL1 Blue, purified (HisPur Cobalt Spin Plates)) GSDLGKKLLEATRAGQDDEVRILMANGADVNAQDVSGQTPLHLAAIWGHLEIVEVLLKTGADVNAQDWFGETPLHLAAVQGHLEIVEVLLKTGADVNAWDAYGHTPLHLAANYGHLEIVEVLLKHGADVNAQDKFGKTPFDLAIDNGNEDIAEVLQKAAKLN"

# Target: biotinylated HER3 domain 4 with N-terminal AviTag and His6 tag (Homo sapiens)
# Assay: SPR; ProteOn XPR36, biotinylated HER3d4 on a NeutrAvidin NLC chip; monomeric DARPins injected at 2.5, 7.5, 22, 67 and 200 nM, 60 ul/min; PBS with 0.005% Tween-20; kinetic titration model
# Settings: not given
row,Kd [nM],Binder
1,4.5,"DARPin D6 (designed binder, N3C DARPin selected by ribosome display; source: E. coli XL1 Blue, purified (HisPur Cobalt Spin Plates)) GSDLGKKLLEAARAGQDDEVRILMANGADVNAQDVSGQTPLHLAAIWGHLEIVEVLLKTGADVNAWDHWGNTPLHLAAWQGHLEIVEVLLKAGTDVNAKDSEGFTPLHLAAWWGHLEIVEVLLKHGADVNAQDKFGKTPFDLAIDNGNEDIAEVLQKAAKLN"
2,8.1,"DARPin D3 (designed binder, N2C DARPin selected by ribosome display; source: E. coli XL1 Blue, purified (HisPur Cobalt Spin Plates)) GSDLGKKLLEAARAGQDDEVRILMANGADVNAFDHSGSTPLHLAAAIGHLEIVEVLLKYGADVNAEDNWGNTPLHQAAWVGHREIVEVLLKYGADVNAQDKFGKTAFDISIDNGNEDLAEILQKLN"

# Target: T2, HER3 extracellular domain 4 (HER3d4) …
# Assay: crystal structure; DARPin D5 incubated with HER3d4 at a 1:1.2 molar ratio, complex purified by gel filtration in PBS; sitting drop, 277 K; two crystal forms, P2(1) at 2.3 A and P2(1)2(1)2(1) at 2.0 A
# Settings: both partners purified
row,binding result,Binder
1,binds,"DARPin D5 (designed ankyrin-repeat protein D5), His6 tag removed by 3C protease (designed binder, N2C DARPin selected by ribosome display; Carries the framework mutation L86Q against the DARPin consensus; source: E. coli XL1 Blue, purified (Ni-NTA, 3C protease cleavage, reverse Ni-NTA); not shown: His6, N-terminal, cleaved) GPGSDLGKKLLEAARAGQDDEVRILMANGADVNAFDHNGSTPLHLAAAIGHLEIVEVLLKYGADVNAEDNWGNTPLHQAAWVGHLEIVEVLLKNGADVNAQDKFGKTAFDISIDNGNEDLAEILQKLN"

# Target: T3, biotinylated HER3 domain 4 with …
# Assay: SPR; ProteOn XPR36, biotinylated HER3d4 on a NeutrAvidin NLC chip; monomeric DARPins injected at 2.5, 7.5, 22, 67 and 200 nM, 60 ul/min; PBS with 0.005% Tween-20; kinetic titration model
# Settings: both partners purified
row,binding result,Binder
1,binds,"DARPin D5 from the pQiq_FLAG expression vector (N-terminal His6 tag, C-terminal FLAG tag) (designed binder, DARPin D5 itself, as printed within the crystallisation construct (from Asp13); source: E. coli XL1 Blue, purified (HisPur Cobalt Spin Plates)) DLGKKLLEAARAGQDDEVRILMANGADVNAFDHNGSTPLHLAAAIGHLEIVEVLLKYGADVNAEDNWGNTPLHQAAWVGHLEIVEVLLKNGADVNAQDKFGKTAFDISIDNGNEDLAEILQKLN"
